Molecular target: human insulin receptor isoform B (human) (UniProt P06213)
Experiment: competitive displacement of 125I-Tyr^A14-insulin, plate antibody capture of receptor

Chain of UniProt P06213 (P06213 other isoform, or with tags, fused parts or gaps): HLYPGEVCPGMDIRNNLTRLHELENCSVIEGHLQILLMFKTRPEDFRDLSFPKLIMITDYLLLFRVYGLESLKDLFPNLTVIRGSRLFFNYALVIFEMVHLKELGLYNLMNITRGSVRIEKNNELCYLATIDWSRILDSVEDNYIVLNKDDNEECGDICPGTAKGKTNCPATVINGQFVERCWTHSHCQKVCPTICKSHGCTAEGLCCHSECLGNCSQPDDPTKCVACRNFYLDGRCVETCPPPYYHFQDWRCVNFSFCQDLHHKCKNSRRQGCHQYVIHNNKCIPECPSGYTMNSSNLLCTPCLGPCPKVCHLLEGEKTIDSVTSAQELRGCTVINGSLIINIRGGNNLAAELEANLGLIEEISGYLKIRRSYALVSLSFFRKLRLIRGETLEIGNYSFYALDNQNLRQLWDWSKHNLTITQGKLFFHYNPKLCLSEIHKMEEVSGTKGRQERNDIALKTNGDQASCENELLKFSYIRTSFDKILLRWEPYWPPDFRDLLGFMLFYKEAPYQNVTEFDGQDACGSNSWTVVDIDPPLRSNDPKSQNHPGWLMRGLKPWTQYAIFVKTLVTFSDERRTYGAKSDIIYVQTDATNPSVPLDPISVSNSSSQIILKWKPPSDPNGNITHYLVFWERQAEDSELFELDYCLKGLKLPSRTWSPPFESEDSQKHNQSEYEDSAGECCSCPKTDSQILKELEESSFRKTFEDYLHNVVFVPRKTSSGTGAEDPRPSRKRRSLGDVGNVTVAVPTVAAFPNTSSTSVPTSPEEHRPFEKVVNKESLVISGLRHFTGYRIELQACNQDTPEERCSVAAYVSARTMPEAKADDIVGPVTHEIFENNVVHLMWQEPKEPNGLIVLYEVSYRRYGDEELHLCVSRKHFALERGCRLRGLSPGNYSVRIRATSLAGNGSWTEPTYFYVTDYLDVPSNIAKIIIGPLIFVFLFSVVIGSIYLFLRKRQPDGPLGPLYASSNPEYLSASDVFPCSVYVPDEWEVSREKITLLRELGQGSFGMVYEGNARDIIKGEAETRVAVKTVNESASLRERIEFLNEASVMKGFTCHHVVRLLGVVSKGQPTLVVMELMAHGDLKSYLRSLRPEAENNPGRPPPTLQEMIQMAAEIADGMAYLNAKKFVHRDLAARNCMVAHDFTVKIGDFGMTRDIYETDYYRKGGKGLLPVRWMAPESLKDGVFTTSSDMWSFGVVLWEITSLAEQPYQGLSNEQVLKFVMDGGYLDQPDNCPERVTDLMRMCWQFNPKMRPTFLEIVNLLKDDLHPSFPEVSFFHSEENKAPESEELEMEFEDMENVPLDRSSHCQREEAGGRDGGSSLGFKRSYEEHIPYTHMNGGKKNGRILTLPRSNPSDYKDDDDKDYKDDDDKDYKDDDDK

In the case of “XKPEE: analogue with 2-methyl-Phe^B24 (called X), Lys^B28, Pro^B29, and EE-extension (Glu^B31, Glu^B32) (ligand)”, the Kd is reported as 40 pM.

Source: patent US20110077196A1
